The assay concerns the target hyperphosphorylated human tau P301L (4R0N) from rTg4510 mouse brain (64 and 70 kDa species) (human) (UniProt P10636). In words: binding to P301L human mutant tau isolated from 10 month old Tg4510 mice.

The values below come from patent publication US20190330320A1.

hyperphosphorylated human tau P301L (4R0N) from rTg4510 mouse brain (64 and 70 kDa species) (human), sequence (P10636 other isoform, or with tags, fused parts or gaps P301L P301L): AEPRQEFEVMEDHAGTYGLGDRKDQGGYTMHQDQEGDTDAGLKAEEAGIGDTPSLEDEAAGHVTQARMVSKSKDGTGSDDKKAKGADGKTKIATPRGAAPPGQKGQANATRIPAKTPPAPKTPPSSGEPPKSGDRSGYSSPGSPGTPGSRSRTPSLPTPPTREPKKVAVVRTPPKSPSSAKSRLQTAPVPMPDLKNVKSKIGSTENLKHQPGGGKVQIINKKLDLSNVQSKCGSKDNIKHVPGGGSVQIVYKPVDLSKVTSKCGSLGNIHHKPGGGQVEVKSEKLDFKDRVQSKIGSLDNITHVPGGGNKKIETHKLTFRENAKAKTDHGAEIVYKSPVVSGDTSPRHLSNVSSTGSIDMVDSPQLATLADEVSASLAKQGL

B1: 4E4 (antibody, from another filing, V domains shown)
VH: EVQLVESGGGLVQPGGSLKLSCAASGFNFNISAIHWVRQASGKGLEWVGRIRSKSHNYATLYAASLKGRFTLSRDDSRNTAYLQMSSLQTEDMAVYYCTVLSANYDTFDYWGQGTLVTVSS
VL: SYELTQPPSVSVSPGQTARISCFGDTLPKQYTYWYQQKPGQAPVLVIYKDTERPSGIPERFSGSSSGTTVTLTISGVQAEDEADYYCLSADNSATWVFGGGTKVTVL
As for B1, the TG/wt (binding to P301L tau from Tg4510 mice over wild type) came to 1.
